Earlier results as cited in article PMC11339341.
Read-outs that look alike come from different tables or passages of the source. Each block holds one substance with its values, some of them ahead of it.

Assays:
IFNAR2 (Homo sapiens) [1] = target: IFNAR2 (Homo sapiens) (UniProt P48551)
IFNAR1 (Homo sapiens) = IFNAR1 (Homo sapiens) (UniProt P17181)
IFNAR2 (Homo sapiens) [2] = target: IFNAR2 (Homo sapiens) (UniProt P48551); remark: listed apart in the source
IL-2Rβ (Homo sapiens) [3] = target: IL-2Rβ (Homo sapiens) (UniProt P14784)
IL-2Rβ:γc (Homo sapiens) = IL-2Rβ:γc (Homo sapiens) (UniProt P14784)
IL-2Rβ (Homo sapiens) [4] = target: IL-2Rβ (Homo sapiens) (UniProt P14784); remark: listed apart in the source
IL-4Rα (Homo sapiens) = IL-4Rα (Homo sapiens) (UniProt P24394)
IL-2Rβ (Homo sapiens) [5] = target: IL-2Rβ (Homo sapiens) (UniProt P14784); remark: listed apart in the source
IL-2Rβ (Homo sapiens) [6] = target: IL-2Rβ (Homo sapiens) (UniProt P14784); remark: listed apart in the source

UniProt P48551, sequence (P48551 27-243): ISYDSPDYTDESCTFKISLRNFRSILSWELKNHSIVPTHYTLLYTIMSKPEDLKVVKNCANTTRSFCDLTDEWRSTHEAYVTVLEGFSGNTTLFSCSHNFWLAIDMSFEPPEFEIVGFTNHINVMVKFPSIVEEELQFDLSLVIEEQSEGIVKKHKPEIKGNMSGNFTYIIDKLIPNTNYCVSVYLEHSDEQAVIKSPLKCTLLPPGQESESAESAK
UniProt P17181, sequence (P17181 28-436): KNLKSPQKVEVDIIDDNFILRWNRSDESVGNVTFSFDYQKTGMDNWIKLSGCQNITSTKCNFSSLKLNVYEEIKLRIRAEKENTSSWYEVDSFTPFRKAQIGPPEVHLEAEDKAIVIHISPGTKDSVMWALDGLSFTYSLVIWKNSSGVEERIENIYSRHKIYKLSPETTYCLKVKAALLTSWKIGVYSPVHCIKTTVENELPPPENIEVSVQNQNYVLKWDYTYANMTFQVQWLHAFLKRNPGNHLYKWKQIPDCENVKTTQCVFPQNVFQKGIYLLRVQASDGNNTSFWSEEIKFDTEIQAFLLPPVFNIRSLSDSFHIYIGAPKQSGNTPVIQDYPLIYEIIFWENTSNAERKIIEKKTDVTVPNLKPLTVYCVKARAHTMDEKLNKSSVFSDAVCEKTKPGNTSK

- Kd (IFNAR2 (Homo sapiens) [1]): 200 nM
Substance: IFNα1 (from UniProt P0DY56)

- Kd (IFNAR1 (Homo sapiens)): 50 nM
- Kd (IFNAR2 (Homo sapiens) [2]): 0.2 nM
Substance: IFNβ (from UniProt P01574)

- Kd (IL-2Rβ (Homo sapiens) [3]): 100 nM
- Kd (IL-2Rβ:γc (Homo sapiens)): 1 nM
Substance: IL-2 (from UniProt P60568)

- Kd (IL-2Rβ (Homo sapiens) [4]): 0.03 nM
Substance: IL-2:IL-2Rα complex (from UniProt P60568)

- Kd (IL-4Rα (Homo sapiens)): < 1 nM
Substance: IL-4 (from UniProt P05112)

- Kd (IL-2Rβ (Homo sapiens) [5]): 438 nM
Substance: IL-15 (from UniProt P40933)

- Kd (IL-2Rβ (Homo sapiens) [6]): 3 nM
Substance: IL-15:IL-15Rα complex (from UniProt P40933)
